# T1: BAK-SYFP2 (UniProt Q16611 1-211)
# T1 construct: BAK, pro-apoptotic BCL2 family protein; amplified by PCR from Flag-tagged BAK; Cloned with EcoRI and XhoI into the SYFP2 plasmid; also called SYFP2-BAK; source: HEK293T or IHH cells, transfected, in live cells
# T1 sequence (looked up): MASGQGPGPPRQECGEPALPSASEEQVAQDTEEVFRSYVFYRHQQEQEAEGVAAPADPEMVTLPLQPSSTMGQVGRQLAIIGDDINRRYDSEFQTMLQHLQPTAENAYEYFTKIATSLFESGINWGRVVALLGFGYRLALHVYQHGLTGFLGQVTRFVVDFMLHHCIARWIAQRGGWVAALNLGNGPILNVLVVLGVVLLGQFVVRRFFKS
# B1: p40MET-mTurquoise2 (domain or fragment, mouse, UniProt P16056 1001-1374, looked up)
# chain: YRATFPEDQFPNSSQNGACRQVQYPLTDLSPILTSGDSDISSPLLQNTVHIDLSALNPELVQAVQHVVIGPSSLIVHFNEVIGRGHFGCVYHGTLLDNDGKKIHCAVKSLNRITDIEEVSQFLTEGIIMKDFSHPNVLSLLGICLRSEGSPLVVLPYMKHGDLRNFIRNETHNPTVKDLIGFGLQVAKGMKYLASKKFVHRDLAARNCMLDEKFTVKVADFGLARDMYDKEYYSVHNKTGAKLPVKWMALESLQTQKFTTKSDVWSFGVLLWELMTRGAPPYPDVNTFDITIYLLQGRRLLQPEYCPDALYEVMLKCWHPKAEMRPSFSELVSRISSIFSTFIGEHYVHVNATYVNVKCVAPYPSLLPSQDNID
# notes: limits worked out from the stated caspase sites; also called p40MET-mT2; mT2-p40MET; source: HEK293T or IHH cells, transfected, in live cells
# B2: p40MET-SYFP2 (domain or fragment, mouse, UniProt P16056 1001-1374, looked up)
# chain: B1 chain
# notes: limits worked out from the stated caspase sites; also called SYFP2-p40MET; source: HEK293T or IHH cells, transfected, in live cells
# How the values were obtained:
# Test in all cases: FRET or BRET; FLIM-FRET by TCSPC in live co-transfected HEK293T cells, 37°C, L-15 medium; lifetime of the mT2 donor against donor alone; SYFP2 or EYFP fusion as acceptor
# BAK-mTurquoise2 = BAK-mTurquoise2 (UniProt Q16611)
# BAX-SYFP2 = target: T2, BAX-SYFP2 (UniProt Q07812 1-192); settings: partners not purified
# T2 construct: BAX, pro-apoptotic BCL2 family protein; amplified by PCR from Flag-tagged BAX; Cloned with EcoRI and XhoI into the SYFP2 plasmid; also called SYFP2-tagged BAX; source: HEK293T, transfected, in live cells
# BAK-SYFP2 = target: T1, BAK-SYFP2; settings: partners not purified
# BAX-mTurquoise2 = target: T3, BAX-mTurquoise2 (UniProt Q07812 1-192); settings: partners not purified
# T3 construct: BAX, pro-apoptotic BCL2 family protein; amplified by PCR from Flag-tagged BAX; Cloned with EcoRI and XhoI into the mTurquoise2 plasmid; also called BAX-mT2; mT2-fused BAX; source: HEK293T, transfected, in live cells
# T3 sequence (Q07812 whole entry, the tested form may be a part): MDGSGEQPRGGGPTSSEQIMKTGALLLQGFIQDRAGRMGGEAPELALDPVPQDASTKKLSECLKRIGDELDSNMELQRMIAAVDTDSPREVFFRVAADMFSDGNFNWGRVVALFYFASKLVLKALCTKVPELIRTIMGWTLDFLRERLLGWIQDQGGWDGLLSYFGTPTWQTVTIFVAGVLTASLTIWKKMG
# T2 sequence (Q07812 whole entry): as the sequence (Q07812 whole entry, the tested form may be a part) above
molecule,measurement,setting,value
free SYFP2 (Super Yellow Fluorescent Protein 2),mean FRET efficiency,BAK-mTurquoise2,< 0.1%
B1,mean FRET efficiency,BAX-SYFP2,2.5%
same,mean FRET efficiency,BAK-SYFP2,4%
B2,mean FRET efficiency,BAX-mTurquoise2,4.3%

# Reference: PMC7039684, “Control of cell death/survival balance by the MET dependence receptor” (eLife, 2020)
